Source: IntAct's records for PubMed 31515488

B1: Synaptotagmin-16 (Homo sapiens), Q17RD7 (parent)
chain: MVLAMASQDVQNFFQPFSSWISRVYEALQQAGDMLSASLVNISKQDSKLSDKLDQDLDNIQIQETYFEDEEQDNDWSQEDANSLFLEVDHFSCCNSDLQDSAQNSSPSLSQHAKDSCSTMSQWPNWASDDRKLPHVLSSIAEEEHHLEKQRSGLQHGFDSQLPGTLETVNGKKQVNSFGDDEELSTSSDSDEEVIKQFEISVSRSQSFRSVTSEKGKQTGLEQKPKFSRSLLTHGEDGTEVSACEDLDGASQRRYSENLSYGEDDHIPAHSQSPCERGDAKHHGTSHQESSVVQSLRRQSTEGSLEMETAFNSRGFEDSYATDSSSMWSPEEQDRTNLQVPSGVSEPISKCGDLDVIFEYRAASQKLTVTIVRAQGLPDKDRSGVNSWQVHVVLLPGKKHRGRTNIQRGPNPVFREKVTFAKLEPRDVAACAVRFRLYAARKMTRERMMGEKLFYLSHLHPEGEMKVTLVLEPRSNISSGGSPLSPSAVSHSDSTSSTQSLSHGGAPELLVGLSYNATTGRLSVEMIKGSHFRNLAVNRAPDTYGKLFLLNSVGQEMSRCKTSIRRGQPNPVYKETFVFQVALFQLSDVTLMISVYNRRTMKRKEMIGWIALGQNSSGEEEQDHWEEMKETKGQQICRWHTLLES
B2: Max-like protein X (Homo sapiens), Q9UH92 (parent)
chain: MTEPGASPEDPWVKASPVGAHAGEGRAGRARARRGAGRRGASLLSPKSPTLSVPRGCREDSSHPACAKVEYAYSDNSLDPGLFVESTRKGSVVSRANSIGSTSASSVPNTDDEDSDYHQEAYKESYKDRRRRAHTQAEQKRRDAIKRGYDDLQTIVPTCQQQDFSIGSQKLSKAIVLQKTIDYIQFLHKEKKKQEEEVSTLRKDVTALKIMKVNYEQIVKAHQDNPHEGEDQVSDQVKFNVFQGIMDSLFQSFNASISVASFQELSACVFSWIEEHCKPQTLREIVIGVLHQLKNQLY
partner: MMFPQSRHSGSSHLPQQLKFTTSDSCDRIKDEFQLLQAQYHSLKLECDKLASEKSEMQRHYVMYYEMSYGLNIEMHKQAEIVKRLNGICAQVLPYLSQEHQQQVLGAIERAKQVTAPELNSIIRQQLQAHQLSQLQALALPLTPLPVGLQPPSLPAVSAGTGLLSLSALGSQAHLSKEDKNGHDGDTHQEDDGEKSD
B3: Cyclic AMP-dependent transcription factor ATF-4 (Homo sapiens), P18848 (parent)
chain: MTEMSFLSSEVLVGDLMSPFDQSGLGAEESLGLLDDYLEVAKHFKPHGFSSDKAKAGSSEWLAVDGLVSPSNNSKEDAFSGTDWMLEKMDLKEFDLDALLGIDDLETMPDDLLTTLDDTCDLFAPLVQETNKQPPQTVNPIGHLPESLTKPDQVAPFTFLQPLPLSPGVLSSTPDHSFSLELGSEVDITEGDRKPDYTAYVAMIPQCIKEEDTPSDNDSGICMSPESYLGSPQHSPSTRGSPNRSLPSPGVLCGSARPKPYDPPGEKMVAAKVKGEKLDKKLKKMEQNKTAATRYRQKKRAEQEALTGECKELEKKNEALKERADSLAKEIQYLKDLIEEVRKARGKKRVP
partner: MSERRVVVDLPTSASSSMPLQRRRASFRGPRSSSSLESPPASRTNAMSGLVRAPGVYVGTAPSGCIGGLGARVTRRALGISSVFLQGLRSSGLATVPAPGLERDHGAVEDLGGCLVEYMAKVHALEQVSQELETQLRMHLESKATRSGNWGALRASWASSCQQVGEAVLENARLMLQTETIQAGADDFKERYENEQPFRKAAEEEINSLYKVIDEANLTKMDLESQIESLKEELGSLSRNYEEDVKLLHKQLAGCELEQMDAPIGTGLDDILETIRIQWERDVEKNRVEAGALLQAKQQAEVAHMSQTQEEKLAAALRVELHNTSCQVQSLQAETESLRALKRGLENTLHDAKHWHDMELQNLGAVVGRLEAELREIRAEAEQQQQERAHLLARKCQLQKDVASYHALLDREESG
B4: Pre-B-cell leukemia transcription factor-interacting protein 1 (Homo sapiens), Q96AQ6 (parent)
chain: MASCPDSDNSWVLAGSESLPVETLGPASRMDPESERALQAPHSPSKTDGKELAGTMDGEGTLFQTESPQSGSILTEETEVKGTLEGDVCGVEPPGPGDTVVQGDLQETTVVTGLGPDTQDLEGQSPPQSLPSTPKAAWIREEGRCSSSDDDTDVDMEGLRRRRGREAGPPQPMVPLAVENQAGGEGAGGELGISLNMCLLGALVLLGLGVLLFSGGLSESETGPMEEVERQVLPDPEVLEAVGDRQDGLREQLQAPVPPDSVPSLQNMGLLLDKLAKENQDIRLLQAQLQAQKEELQSLMHQPKGLEEENAQLRGALQQGEAFQRALESELQQLRARLQGLEADCVRGPDGVCLSGGRGPQGDKAIREQGPREQEPELSFLKQKEQLEAEAQALRQELERQRRLLGSVQQDLERSLQDASRGDPAHAGLAELGHRLAQKLQGLENWGQDPGVSANASKAWHQKSHFQNSREWSGKEKWWDGQRDRKAEHWKHKKEESGRERKKNWGGQEDREPAGRWKEGRPRVEESGSKKEGKRQGPKEPPRKSGSFHSSGEKQKQPRWREGTKDSHDPLPSWAELLRPKYRAPQGCSGVDECARQEGLTFFGTELAPVRQQELASLLRTYLARLPWAGQLTKELPLSPAFFGEDGIFRHDRLRFRDFVDALEDSLEEVAVQQTGDDDEVDDFEDFIFSHFFGDKALKKRSGKKDKHSQSPRAAGPREGHSHSHHHHHRG
B5: U2 small nuclear ribonucleoprotein A' (Homo sapiens), P09661 (parent)
chain: MVKLTAELIEQAAQYTNAVRDRELDLRGYKIPVIENLGATLDQFDAIDFSDNEIRKLDGFPLLRRLKTLLVNNNRICRIGEGLDQALPCLTELILTNNSLVELGDLDPLASLKSLTYLSILRNPVTNKKHYRLYVIYKVPQVRVLDFQKVKLKERQEAEKMFKGKRGAQLAKDIARRSKTFNPGAGLPTDKKKGGPSPGDVEAIKNAIANASTLAEVERLKGLLQSGQIPGRERRSGPTDDGEEEMEEDTVTNGS
B6: Leukocyte receptor cluster member 1 (Homo sapiens), Q96BZ8 (parent)
chain: MNILPKKSWHVRNKDNVARVRRDEAQAREEEKERERRVLLAQQEARTEFLRKKARHQNSLPELEAAEAGAPGSGPVDLFRELLEEGKGVIRGNKEYKEEKRQEKERQEKALGILTYLGQSAAEAQTQPPWYQLPPGRGGPPPGPAPDEKIKSRLDPLREMQKHLGKKRQHGGDEGSRSRKEKEGSEKQRPKEPPSLDQLRAERLRREAAERSRAEALLARVQGRALQEGQPEEDETDDRRRRYNSQFNPQLARRPRQQDPHLTH
B7: Keratin, type I cytoskeletal 18 (Homo sapiens), P05783 (parent)
chain: MSFTTRSTFSTNYRSLGSVQAPSYGARPVSSAASVYAGAGGSGSRISVSRSTSFRGGMGSGGLATGIAGGLAGMGGIQNEKETMQSLNDRLASYLDRVRSLETENRRLESKIREHLEKKGPQVRDWSHYFKIIEDLRAQIFANTVDNARIVLQIDNARLAADDFRVKYETELAMRQSVENDIHGLRKVIDDTNITRLQLETEIEALKEELLFMKKNHEEEVKGLQAQIASSGLTVEVDAPKSQDLAKIMADIRAQYDELARKNREELDKYWSQQIEESTTVVTTQSAEVGAAETTLTELRRTVQSLEIDLDSMRNLKASLENSLREVEARYALQMEQLNGILLHLESELAQTRAEGQRQAQEYEALLNIKVKLEAEIATYRRLLEDGEDFNLGDALDSSNSMQTIQKTTTRRIVDGKVVSETNDTKVLRH
B8: Carbonyl reductase [NADPH] 3 (Homo sapiens), O75828 (parent)
chain: MSSCSRVALVTGANRGIGLAIARELCRQFSGDVVLTARDVARGQAAVQQLQAEGLSPRFHQLDIDDLQSIRALRDFLRKEYGGLNVLVNNAAVAFKSDDPMPFDIKAEMTLKTNFFATRNMCNELLPIMKPHGRVVNISSLQCLRAFENCSEDLQERFHSETLTEGDLVDLMKKFVEDTKNEVHEREGWPNSPYGVSKLGVTVLSRILARRLDEKRKADRILVNACCPGPVKTDMDGKDSIRTVEEGAETPVYLALLPPDATEPQGQLVHDKVVQNW
B9: Dynein axonemal assembly factor 19 (Homo sapiens), Q8IW40 (parent)
chain: MERNDIINFKALEKELQAALTADEKYKRENAAKLRAVEQRVASYEEFRGIVLASHLKPLERKDKMGGKRTVPWNCHTIQGRTFQDVATEISPEKAPLQPETSADFYRDWRRHLPSGPERYQALLQLGGPRLGCLFQTDVGFGLLGELLVALADHVGPADRAAVLGILCSLASTGRFTLNLSLLSRAERESCKGLFQKLQAMGNPRSVKEGLSWEEQGLEEQSGGLQEEERLLQELLELYQVD

Variants of: B1
Details: with praf1_human RABAC1, Q9UI14
praf1_human RABAC1, Q9UI14, sequence (Q9UI14 whole entry): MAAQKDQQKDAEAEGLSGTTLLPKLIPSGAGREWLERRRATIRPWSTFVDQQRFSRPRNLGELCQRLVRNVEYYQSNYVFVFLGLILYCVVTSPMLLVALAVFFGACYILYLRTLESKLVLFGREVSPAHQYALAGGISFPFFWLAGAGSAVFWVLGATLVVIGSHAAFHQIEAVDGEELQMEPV

Row | Variant | effect of a mutation on the interaction
1 | R131L | with no effect

Variants of: B1
Details: with rtn4_human RTN4, Q9NQC3
rtn4_human RTN4, Q9NQC3, sequence (Q9NQC3 whole entry): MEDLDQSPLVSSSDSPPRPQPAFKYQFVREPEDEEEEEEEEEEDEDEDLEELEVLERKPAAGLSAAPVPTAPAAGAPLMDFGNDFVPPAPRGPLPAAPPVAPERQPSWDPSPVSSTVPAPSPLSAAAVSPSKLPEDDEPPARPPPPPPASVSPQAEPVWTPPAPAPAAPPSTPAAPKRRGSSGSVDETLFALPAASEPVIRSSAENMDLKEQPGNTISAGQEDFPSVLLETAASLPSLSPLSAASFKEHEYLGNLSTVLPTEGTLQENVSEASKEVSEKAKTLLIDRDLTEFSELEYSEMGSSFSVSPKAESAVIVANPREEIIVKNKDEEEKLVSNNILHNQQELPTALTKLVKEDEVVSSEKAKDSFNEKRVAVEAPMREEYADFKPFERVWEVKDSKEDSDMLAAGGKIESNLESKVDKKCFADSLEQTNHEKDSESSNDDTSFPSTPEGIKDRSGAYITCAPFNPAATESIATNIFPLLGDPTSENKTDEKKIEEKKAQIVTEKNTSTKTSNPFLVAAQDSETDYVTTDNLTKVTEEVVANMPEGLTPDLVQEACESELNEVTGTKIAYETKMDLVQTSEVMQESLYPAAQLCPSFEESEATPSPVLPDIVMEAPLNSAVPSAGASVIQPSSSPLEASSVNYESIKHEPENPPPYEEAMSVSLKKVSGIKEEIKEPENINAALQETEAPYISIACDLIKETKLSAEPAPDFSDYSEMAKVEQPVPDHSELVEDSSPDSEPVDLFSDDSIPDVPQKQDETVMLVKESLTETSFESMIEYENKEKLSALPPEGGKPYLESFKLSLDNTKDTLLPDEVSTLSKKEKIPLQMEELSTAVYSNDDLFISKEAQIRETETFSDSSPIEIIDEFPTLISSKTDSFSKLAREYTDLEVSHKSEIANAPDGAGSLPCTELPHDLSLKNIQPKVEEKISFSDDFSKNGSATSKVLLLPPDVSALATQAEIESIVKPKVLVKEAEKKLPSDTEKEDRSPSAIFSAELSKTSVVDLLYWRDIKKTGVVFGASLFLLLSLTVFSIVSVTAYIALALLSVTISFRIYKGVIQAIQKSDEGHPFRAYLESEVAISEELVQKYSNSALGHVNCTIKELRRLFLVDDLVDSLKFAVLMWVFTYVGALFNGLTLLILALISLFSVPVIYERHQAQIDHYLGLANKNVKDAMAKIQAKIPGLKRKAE

Row | Variant | effect of a mutation on the interaction
2 | R131L | with no effect

Variants of: B1
Details: with atrap_human AGTRAP

Row | Variant | effect of a mutation on the interaction
3 | R131L | with no effect

Variants of: B2
Details: with tle5_human TLE5, Q08117

Row | Variant | effect of a mutation on the interaction
4 | Q223R | with no effect

Variants of: B3
Details: with bfsp2_human BFSP2, Q13515

Row | Variant | effect of a mutation on the interaction
5 | A324V | with no effect
6 | T137S | with no effect
7 | E322D | disrupting interaction strength
8 | P258A | with no effect

Variants of: B4
Details: with mdfi_human MDFI

Row | Variant | effect of a mutation on the interaction
9 | G357D | with no effect

Variants of: B4
Details: with sgta_human SGTA

Row | Variant | effect of a mutation on the interaction
10 | R499Q | with no effect

Variants of: B5
Details: with ru2b_human SNRPB2, P08579
ru2b_human SNRPB2, P08579, sequence (P08579 whole entry): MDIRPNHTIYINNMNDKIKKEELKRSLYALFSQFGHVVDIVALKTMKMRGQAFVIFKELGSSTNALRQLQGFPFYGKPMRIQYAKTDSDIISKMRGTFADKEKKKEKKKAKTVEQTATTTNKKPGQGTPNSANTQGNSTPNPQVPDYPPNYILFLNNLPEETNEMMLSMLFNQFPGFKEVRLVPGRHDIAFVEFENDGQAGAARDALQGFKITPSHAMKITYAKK

Row | Variant | effect of a mutation on the interaction
11 | S99N | with no effect
12 | P32S | with no effect

Variants of: B6
Details: with cc136_human CCDC136, Q96JN2
cc136_human CCDC136, Q96JN2, sequence (Q96JN2 whole entry): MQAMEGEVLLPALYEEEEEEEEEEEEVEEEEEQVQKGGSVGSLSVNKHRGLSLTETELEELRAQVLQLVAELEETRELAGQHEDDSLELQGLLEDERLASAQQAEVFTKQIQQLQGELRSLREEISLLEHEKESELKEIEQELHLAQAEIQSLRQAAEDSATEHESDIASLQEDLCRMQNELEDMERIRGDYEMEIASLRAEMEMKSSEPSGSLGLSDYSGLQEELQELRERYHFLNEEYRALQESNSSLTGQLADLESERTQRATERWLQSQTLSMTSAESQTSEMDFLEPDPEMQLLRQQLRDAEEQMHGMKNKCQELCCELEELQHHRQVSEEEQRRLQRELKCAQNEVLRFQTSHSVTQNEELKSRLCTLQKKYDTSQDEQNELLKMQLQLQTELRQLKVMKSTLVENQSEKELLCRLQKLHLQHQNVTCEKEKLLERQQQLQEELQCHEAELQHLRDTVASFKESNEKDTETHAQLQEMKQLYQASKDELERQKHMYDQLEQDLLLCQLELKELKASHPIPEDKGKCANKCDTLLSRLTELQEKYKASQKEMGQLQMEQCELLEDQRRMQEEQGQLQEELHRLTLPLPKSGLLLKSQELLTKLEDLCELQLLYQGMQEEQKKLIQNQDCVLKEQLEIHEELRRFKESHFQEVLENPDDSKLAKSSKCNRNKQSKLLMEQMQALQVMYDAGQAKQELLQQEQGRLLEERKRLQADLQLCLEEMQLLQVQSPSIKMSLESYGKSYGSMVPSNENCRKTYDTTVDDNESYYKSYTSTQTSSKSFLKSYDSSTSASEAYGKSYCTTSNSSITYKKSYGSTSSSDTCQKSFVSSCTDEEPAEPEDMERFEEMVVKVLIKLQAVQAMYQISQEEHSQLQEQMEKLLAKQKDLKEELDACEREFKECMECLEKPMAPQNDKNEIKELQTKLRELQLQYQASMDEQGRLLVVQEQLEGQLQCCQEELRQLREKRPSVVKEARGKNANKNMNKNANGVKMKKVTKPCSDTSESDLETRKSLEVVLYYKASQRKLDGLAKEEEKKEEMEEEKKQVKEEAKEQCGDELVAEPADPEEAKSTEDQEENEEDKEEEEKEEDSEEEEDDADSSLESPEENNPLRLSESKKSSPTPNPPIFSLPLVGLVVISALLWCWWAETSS

Row | Variant | effect of a mutation on the interaction
13 | R256C | disrupting interaction strength

Variants of: B6
Details: with cep70_human CEP70, Q8NHQ1
cep70_human CEP70, Q8NHQ1, sequence (Q8NHQ1 whole entry): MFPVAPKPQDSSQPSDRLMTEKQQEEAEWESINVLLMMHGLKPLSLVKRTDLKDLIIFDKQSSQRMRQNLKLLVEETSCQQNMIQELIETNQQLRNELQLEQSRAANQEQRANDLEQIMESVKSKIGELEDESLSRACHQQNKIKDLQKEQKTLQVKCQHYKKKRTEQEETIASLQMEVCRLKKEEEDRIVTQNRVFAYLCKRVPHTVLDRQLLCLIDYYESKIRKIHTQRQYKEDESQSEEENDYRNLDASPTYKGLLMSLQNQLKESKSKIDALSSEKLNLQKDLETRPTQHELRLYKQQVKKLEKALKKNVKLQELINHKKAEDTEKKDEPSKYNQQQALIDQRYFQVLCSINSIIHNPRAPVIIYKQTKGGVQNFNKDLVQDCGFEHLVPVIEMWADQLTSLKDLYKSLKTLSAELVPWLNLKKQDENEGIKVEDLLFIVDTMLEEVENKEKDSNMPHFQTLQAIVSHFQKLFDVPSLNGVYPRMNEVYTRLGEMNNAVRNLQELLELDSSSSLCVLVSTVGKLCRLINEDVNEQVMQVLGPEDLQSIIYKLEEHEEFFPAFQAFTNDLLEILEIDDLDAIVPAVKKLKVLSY

Row | Variant | effect of a mutation on the interaction
14 | K97Q | with no effect

Variants of: B6
Details: with trim1_human MID2, Q9UJV3

Row | Variant | effect of a mutation on the interaction
15 | K97Q | with no effect

Variants of: B6
Details: with rop1a_human ROPN1, Q9HAT0
rop1a_human ROPN1, Q9HAT0, sequence (Q9HAT0 whole entry): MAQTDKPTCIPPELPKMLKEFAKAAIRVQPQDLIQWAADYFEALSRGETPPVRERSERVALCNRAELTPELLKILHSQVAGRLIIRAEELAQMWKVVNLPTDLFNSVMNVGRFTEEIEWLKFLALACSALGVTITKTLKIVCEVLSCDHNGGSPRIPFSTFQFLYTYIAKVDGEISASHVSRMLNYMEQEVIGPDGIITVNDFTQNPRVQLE

Row | Variant | effect of a mutation on the interaction
16 | K97Q | with no effect

Variants of: B6
Details: with ldoc1_human LDOC1, O95751
ldoc1_human LDOC1, O95751, sequence (O95751 whole entry): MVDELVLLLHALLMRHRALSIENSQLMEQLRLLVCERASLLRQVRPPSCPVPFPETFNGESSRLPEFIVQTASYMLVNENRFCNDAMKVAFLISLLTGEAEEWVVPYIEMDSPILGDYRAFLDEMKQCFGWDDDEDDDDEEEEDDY

Row | Variant | effect of a mutation on the interaction
17 | K97Q | with no effect

Variants of: B7
Details: with KRT15, P19012
KRT15, P19012, sequence (P19012 whole entry): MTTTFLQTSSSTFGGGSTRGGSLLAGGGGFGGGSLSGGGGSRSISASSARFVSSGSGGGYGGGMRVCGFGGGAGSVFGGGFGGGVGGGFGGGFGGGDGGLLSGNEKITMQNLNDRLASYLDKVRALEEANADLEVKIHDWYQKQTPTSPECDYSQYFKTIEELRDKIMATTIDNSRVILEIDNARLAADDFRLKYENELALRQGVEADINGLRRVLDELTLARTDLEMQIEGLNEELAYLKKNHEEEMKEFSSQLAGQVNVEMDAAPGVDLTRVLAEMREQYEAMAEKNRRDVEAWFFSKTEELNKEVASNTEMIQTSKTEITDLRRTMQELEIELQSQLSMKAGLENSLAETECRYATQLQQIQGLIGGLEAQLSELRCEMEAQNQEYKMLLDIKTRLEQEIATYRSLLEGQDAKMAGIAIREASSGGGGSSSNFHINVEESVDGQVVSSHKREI

Row | Variant | effect of a mutation on the interaction
18 | I150V | with no effect

Variants of: B8
Details: with sdcb1_human SDCBP

Row | Variant | effect of a mutation on the interaction
19 | P131S | with no effect
20 | V244M | with no effect

Variants of: B9
Details: with vac14_human VAC14, Q08AM6
vac14_human VAC14, Q08AM6, sequence (Q08AM6 whole entry): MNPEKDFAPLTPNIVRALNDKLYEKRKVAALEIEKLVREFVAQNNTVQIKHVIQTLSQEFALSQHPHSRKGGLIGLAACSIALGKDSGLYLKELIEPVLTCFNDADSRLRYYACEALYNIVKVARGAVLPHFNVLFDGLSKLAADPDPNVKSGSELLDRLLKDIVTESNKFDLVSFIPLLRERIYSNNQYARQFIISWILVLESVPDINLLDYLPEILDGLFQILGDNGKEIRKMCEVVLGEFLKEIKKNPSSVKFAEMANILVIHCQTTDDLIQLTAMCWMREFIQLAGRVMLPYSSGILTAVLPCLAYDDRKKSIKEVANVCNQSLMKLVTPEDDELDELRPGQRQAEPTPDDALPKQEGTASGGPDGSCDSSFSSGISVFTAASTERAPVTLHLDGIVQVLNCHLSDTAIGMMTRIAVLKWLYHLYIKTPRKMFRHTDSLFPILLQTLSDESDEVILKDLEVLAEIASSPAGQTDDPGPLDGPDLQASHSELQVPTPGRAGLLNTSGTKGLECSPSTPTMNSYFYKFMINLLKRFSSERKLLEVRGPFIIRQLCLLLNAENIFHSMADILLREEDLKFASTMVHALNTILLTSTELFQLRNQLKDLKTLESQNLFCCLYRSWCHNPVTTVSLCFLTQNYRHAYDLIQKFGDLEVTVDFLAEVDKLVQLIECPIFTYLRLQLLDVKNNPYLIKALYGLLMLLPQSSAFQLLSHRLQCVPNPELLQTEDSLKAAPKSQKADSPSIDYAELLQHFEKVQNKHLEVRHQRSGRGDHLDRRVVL

Row | Variant | effect of a mutation on the interaction
21 | H154P | with no effect
22 | H112N | with no effect

Variants of: B9
Details: with hgs_human HGS

Row | Variant | effect of a mutation on the interaction
23 | K27R | with no effect
